Experimental data as given in the RNAGym collection of RNA variant scans (doi:10.1073/pnas.2313332121).

B1: TPR t1 (parent)
chain: GACCAAUCUGCCCUCAGAGCUCGAGAACAUCUUCGGAUGCAGAGGAGGCAGGCUUCGGUGGCGCGAUAGCGCCAACGUCCUCAACCUCCAAUGCAUCCCACCACAUGAUGAUGCCUGAAGAGCCUUGGUUUUUUG

Variants of: B1
Assay: polymerase ribozyme fitness, log enrichment relative to wild type (log ratio); higher = more active; in vitro selection for triplet polymerase activity
Method in brief: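 Streptavidin-bead capture of gel-excised extended constructs, followed by RT-PCR, closed a single triplicate in vitro selection round. That round began by annealing PCR-built, transcribed mutant libraries of each subunit of a heterodimeric triplet polymerase ribozyme with a biotinylated primer, the partner subunit and triplets, then incubating them frozen at −7 °C. After Illumina sequencing of inputs and outputs, genotypes needed ≥10 input reads and ≥1 read per output. Fitness is the base-2 logarithm of genotype enrichment over wild-type enrichment, using inverse-variance-weighted replicate averages.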

| Variant | polymerase ribozyme fitness (log ratio) |
| --- | --- |
| G36U C124U | 0.315 |
| C34U C64U C88U | -4.34 |
| G36C G61C | -2.42 |
| C34G A111G G127A | -5.87 |
| G36U U78G C97A | -0.315 |
| G36A C94A | -2.77 |
| C34G C62U C94G A105C U130C | -7.14 |
| G36U C56U C104A | -2.85 |
| G35A U59C U116G G122U C124G | -6.12 |
| G35A C62U | -4.22 |
| G35A C62A | -5.05 |
| G35U G39A | -5.13 |
| C34U U116C | -5.7 |
| A37G G57A U106C G120C U129A | -3.11 |
| G36C C64U C85U | -1.78 |
| G36U G61A G117U | -5.19 |
| G35C U87A | -5.04 |
| G36A G45C C114A | -3.75 |
| G36C C40A | -1.42 |
| G36A C40A C53G U59C C124G | -2.06 |
| G35U A46G G69U C98A | -0.783 |

| Variant | polymerase ribozyme fitness (log ratio) |
| --- | --- |
| G36A G44A C73G C79U U116G | -5.21 |
| G36U G71A G120C C123G | -1 |
| C34A U55C G60C U129G | -4.03 |
| C34A C101U | -2.53 |
| C34G G61U C64U C99A G120A A121G | -5.39 |
| C34G C72U | -5.89 |
| A37U C72A | -0.493 |
| G35U G69U C79U | -3.35 |
| G36U C99U C124A | -3.03 |
| G36A C72A C97U | 0.549 |
| G35U G44A U67C A105G U112A | -6.79 |
| G36C U78C A95C | -2.98 |
| A37C G48C U54C G63A A74U G113A | -5.41 |
| G36A G42C C76G | -2.73 |
| C34G U78G | -6.71 |
| C34U G52U U87G U112A G135C | -5.16 |
| C34G C115G | -7.42 |
| A37G C53G G69A G110U U132C | -6.38 |
| G35A U87A | -3.5 |
| G35U C115A G120C | -5.77 |
| G36U U78C C101U C123A | -1.09 |

| Variant | polymerase ribozyme fitness (log ratio) |
| --- | --- |
| G36C C40G C72U C73A | -5.31 |
| G35U C82U C115A | -6.43 |
| G36C G63U C98U | -3.08 |
| A37U A46U U131G | -2.61 |
| A37U C70G C97U G117U | -5.65 |
| G36U C101A U130C | -1.6 |
| G36U C86A | -1.1 |
| A37C C85A G113C | -3.33 |
| G35A C88G | -4.5 |
| G36U G60A C94U | -1.8 |
| A37G C40U G51U C82G | -3.82 |
| G36U G39A C53A C94G C124G G127C | -2.11 |
| A37U A41C U55C U87G C88U | -2.92 |
| A37C G39C | -4.38 |
| C34U C97U | -4.85 |
| G36U A111G U133G | -2.38 |
| G36U C40A U81A G120C G122A | -4.24 |
| C34A G93A C101U | -3.81 |
| G36C U55G | -1.03 |
| C34U G45C G69U C115G | -3.26 |
| G35C C72U C99A C102U U116C U130G | -6.33 |

| Variant | polymerase ribozyme fitness (log ratio) |
| --- | --- |
| C34U U59A | -5.75 |
| A37C G39A C62U | -3.21 |
| A37G C76G C80G | -6.38 |
| C34U G52A C62G A119G C123U G135C | -5.87 |
| G36U G44A C72A C94G C123G | -4.22 |
| G36U G42U | -3.46 |
| G36A G69A C73A G122A | -4.15 |
| G35A G48C C123G | -2.75 |
| G35A G60C | -5.49 |
| C34U U133A | -4.62 |
| G35A U55A U78G C89U A91C C124A U126G G128U | -6.76 |
| C34G C98G C115A U125A | -7.53 |
| G35C C88U | -4.03 |
| G36U G48U U78A | -2.21 |
| A37C C72U G120U A121C | 0.205 |
| G35U C53U G69U G110U | -4.63 |
| C34U G69U | -0.765 |
| A37G C114U U129C | -3.17 |
| C34A C80U | -4.3 |
| G36A C70A | -2.23 |
